Results as given in patent publication US20220169693A1, “Screening Assays, Modulators and Modulation of Intracellular Signalling Mediated by Immunoglobulin Superfamily Cell Adhesion Molecules” (Monash University, priority 2018, published 2022).

Experiments:
[1] = test system: full length chicken EpCAM; assay: Ang II-induced p65 expression in AT1R-CHO cells transfected with full length chicken EpCAM; type: cell-based; settings: Ang II 1 μM, co-transfection (FIG. 3D)
Description: (§1) Adult retinal pigment epithelial (ARPE) cells were cultured in Dulbecco's modified Eagle's medium (DMEM)/F12 endothelial cell growth supplement (ECGS) supplemented media. Chinese Hamster Ovary (CHO) cells were cultured using F12 media (10% FCS with 2 mM glutamine). Human microvascular endothelial cells (HMEC) were cultured in MCDB 131 medium (10% FCS with 10 mM glutamine, EGF and hydrocortisone).
(§2) 100 ng of AT1R-Rluc8 construct was transfected into CHO cells using Lipofectamine 2000 (Thermo). Stable transfectants were selected using G418. AT1R-CHO were then transiently transfected with the IgSF CAM and/or RAGE constructs using Lipofectamine 2000 (Invitrogen) and incubated for 16h.
(§3) After 2 hours of exposure to Ang II (1 μM) cells were placed in Trizol, mRNA extracted and cDNA synthesized. Changes in the gene expression of the NFκB subunit, p65 (RelA) or NFκB-activated target genes (e.g ICAM-1) were estimated by quantitative real-time RT-PCR, performed using the TaqMan system based on real-time detection of accumulated fluorescence (ABI Prism 7700, Perkin-Elmer Inc, PE Biosystems, Foster City, Calif., USA). Gene expression was normalized to 18S mRNA and reported as fold change compared to the level of expression in untreated control mice/cells, which were given an arbitrary value of 1.

full length RAGE1-404 [2] = biological target: T1, full length RAGE1-404 (Homo sapiens, UniProt Q15109); assay: S100A8/A9-induced PCNA expression in CHO cells transfected with full length RAGE; type: cell-based; design: expressed in transfected cells; host or cells: CHO cells; settings: S100A8/A9 1 μM 2 h, co-transfection (FIG. 4B)
T1 sequence (Q15109 23-404): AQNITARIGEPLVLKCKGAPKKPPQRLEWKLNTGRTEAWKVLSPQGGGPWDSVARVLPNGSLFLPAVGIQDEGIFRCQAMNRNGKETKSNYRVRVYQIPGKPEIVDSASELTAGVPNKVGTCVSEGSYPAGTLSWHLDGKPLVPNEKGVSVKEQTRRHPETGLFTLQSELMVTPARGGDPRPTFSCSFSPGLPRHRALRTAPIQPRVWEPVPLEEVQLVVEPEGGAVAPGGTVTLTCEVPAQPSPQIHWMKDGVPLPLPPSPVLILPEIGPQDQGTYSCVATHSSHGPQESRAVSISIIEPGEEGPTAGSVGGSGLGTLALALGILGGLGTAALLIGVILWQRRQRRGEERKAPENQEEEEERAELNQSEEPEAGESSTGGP

full length RAGE1-404 [3] = biological target: T1, full length RAGE1-404; assay: Ang II-induced p65 expression in AT1R-CHO cells transfected with full length human RAGE; type: cell-based; design: expressed in transfected cells; host or cells: AT1R-CHO (CHO stably transfected with human AT1R-Rluc8), transient transfection; settings: Ang II 1 μM 2 h, co-transfection (FIG. 6A)
Description: as §1, §2, §3

[4] = biological target: T2, full length murine ALCAM1-583 (Mus musculus, UniProt Q61490); assay: S100A8/A9-induced PCNA expression in CHO cells transfected with full length murine ALCAM; type: cell-based; settings: S100A8/A9 1 μM 2 h, co-transfection (FIG. 4A)
T2 construct: host or cells: AT1R-CHO (CHO stably transfected with human AT1R-Rluc8), transient transfection; untagged clone in pCMV6
T2 sequence (Q61490 28-583): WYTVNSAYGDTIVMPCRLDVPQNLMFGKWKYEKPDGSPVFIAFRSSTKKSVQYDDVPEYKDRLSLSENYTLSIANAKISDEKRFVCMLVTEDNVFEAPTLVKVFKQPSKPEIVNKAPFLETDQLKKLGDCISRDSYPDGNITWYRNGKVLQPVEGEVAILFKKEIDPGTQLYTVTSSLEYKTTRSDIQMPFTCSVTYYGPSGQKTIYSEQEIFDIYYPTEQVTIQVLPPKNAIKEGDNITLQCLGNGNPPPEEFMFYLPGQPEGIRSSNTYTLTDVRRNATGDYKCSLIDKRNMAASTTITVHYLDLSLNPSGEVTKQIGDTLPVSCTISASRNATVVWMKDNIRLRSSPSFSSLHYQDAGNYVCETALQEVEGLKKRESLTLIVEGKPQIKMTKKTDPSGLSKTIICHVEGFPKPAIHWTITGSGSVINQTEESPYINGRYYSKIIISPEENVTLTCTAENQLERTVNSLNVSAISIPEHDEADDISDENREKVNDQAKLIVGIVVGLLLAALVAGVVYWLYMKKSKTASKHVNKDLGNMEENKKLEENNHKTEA
Description: as §1
(§4) Oligonucleotides were designed and ordered to generate the ALCAM, BCAM and MCAM intracellular (cytosolic) domains. These included a 5′ NheI site, Kozak sequence and initiating Methionine and then DNA sequences corresponding to ALCAM residues 552-583, BCAM residues 569-628 and MCAM residues 584-637 respectively (Note that as residue 551 of ALCAM is Methionine, the cytosolic tail of ALCAM effectively corresponded to residues 551-583). The pCIneo parental vector was digested with NheI and NotI restriction enzymes, and the DNA of the fragments of the ALCAM, BCAM and MCAM tails/cytosolic domains were ligated into the digested plasmid. […]
[…] Changes in the gene expression of the NFκB subunit, p65 (RelA) or NFκB-activated target genes (e.g ICAM-1) were estimated by quantitative real-time RT-PCR, performed using the TaqMan system based on real-time detection of accumulated fluorescence (ABI Prism 7700, Perkin-Elmer Inc, PE Biosystems, Foster City, Calif., USA). […]

[5] = biological target: T3, cytosolic tail of MCAM, MCAM584-637 (Homo sapiens, UniProt P43121); assay: Ang II-induced p65 expression in AT1R-CHO cells transfected with cytosolic tail of MCAM; type: cell-based; design: corresponds to residues 584-637 of MCAM plus an initiating Methionine; initiating Methionine (N); expressed in transfected cells; host or cells: AT1R-CHO (CHO stably transfected with human AT1R-Rluc8); insert in pCIneo; settings: Ang II 1 μM, co-transfection (FIG. 3I)
T3 sequence (P43121 with tags, fused parts or gaps): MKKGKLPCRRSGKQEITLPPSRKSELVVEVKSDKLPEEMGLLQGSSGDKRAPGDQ
Description: as §1, §2
Oligonucleotides were designed and ordered to generate the ALCAM, BCAM and MCAM intracellular (cytosolic) domains. […]
as §3, with “Gene expression was normalized to 18S mRNA and reported as fold change compared to the level of expression in untreated control mice/cells, which were given an arbitrary value of 1.” left out

[6] = biological target: T2, full length murine ALCAM1-583; assay: Ang II-induced p65/PCNA expression in AT1R-CHO cells transfected with full length murine ALCAM (qRT-PCR); type: cell-based
Description: as §1, §2
as §4, with “plasmid. After transformation and recovery, colonies were screened and individual clones sequenced. The sequence of the insert was confirmed by DNA sequencing (Micromon, Monash University). A full-length clone of Mouse ALCAM (BC027280) was purchased from Origene. The untagged clone was supplied in the vector pCMV6.” for “plasmid.”
as §3, with “Gene expression was normalized to 18S mRNA and reported as fold change compared to the level of expression in untreated control mice/cells, which were given an arbitrary value of 1.” left out

AT1R-CHO cells = assay: p65 expression in AT1R-CHO cells expressing the truncated construct alone; type: cell-based, Chinese Hamster; settings: AT1R-CHO cells, Ang II 1 μM (FIG. 3A, 5A, 5B)
Description: as §1, §2
Oligonucleotides were designed and ordered to generate the ALCAM, BCAM and MCAM intracellular (cytosolic) domains. These included a 5′ NheI site, Kozak sequence and initiating Methionine and then DNA sequences corresponding to ALCAM residues 552-583, BCAM residues 569-628 and MCAM residues 584-637 respectively (Note that as residue 551 of ALCAM is Methionine, the cytosolic tail of ALCAM effectively corresponded to residues 551-583). The pCIneo parental vector was digested with NheI and NotI restriction enzymes, and the DNA of the fragments of the ALCAM, BCAM and MCAM tails/cytosolic domains were ligated into the digested plasmid. After transformation and recovery, colonies were screened and individual clones sequenced. The sequence of the insert was confirmed by DNA sequencing (Micromon, Monash University). A full-length clone of Mouse ALCAM (BC027280) was purchased from Origene. The untagged clone was supplied in the vector pCMV6. Overlapping DNA sequences were ordered to generate the ALCAM559-580 fragment oligonucleotide. These included a 5′ NheI site, Kozak sequence and initiating Methionine and then DNA sequences corresponding to ALCAM residues 559-580. The pCIneo parental vector was digested with NheI and NotI restriction enzymes, and the ALCAM559-580 construct DNA was ligated into the digested plasmid. After transformation and recovery, colonies were screened and individual clones sequenced.
as §3

full length chicken EpCAM, sequence (as listed by the source): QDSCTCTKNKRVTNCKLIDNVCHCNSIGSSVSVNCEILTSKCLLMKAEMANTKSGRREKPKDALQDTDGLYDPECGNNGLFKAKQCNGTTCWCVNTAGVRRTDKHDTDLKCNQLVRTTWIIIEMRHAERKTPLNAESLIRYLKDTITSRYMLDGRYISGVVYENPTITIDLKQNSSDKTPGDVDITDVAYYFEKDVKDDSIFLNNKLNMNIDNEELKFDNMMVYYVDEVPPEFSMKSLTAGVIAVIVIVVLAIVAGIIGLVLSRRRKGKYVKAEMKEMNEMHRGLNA

ligand-dependent signalling (PCNA expression) via full length RAGE activated by S100A8/A9 (full length RAGE1-404 [2]): inhibited | induction of p65 expression mediated by full length human RAGE1-404 transactivated by AT1 receptor (full length RAGE1-404 [3]): inhibits | ligand-dependent signalling (PCNA expression) via murine ALCAM activated by S100A8/A9 [4]: inhibited | induction of p65-NFκB expression by Ang II via transactivation of MCAM584-637 [5]: prevents induction | induction of p65-NFκB expression by Ang II via AT1R-dependent transactivation of full length murine ALCAM1-583 ([6]; Ang II 1 μM 2 h, co-transfection of the construct, vs pCIneo (FIG. 3B, 5B)): prevents induction | p65-NFκB dependent induction of PCNA expression by Ang II via full length murine ALCAM1-583 ([6]; Ang II 1 μM, co-transfection (FIG. 3C)): prevents induction
Sequence: MKHVNKDLGNMEENKKLEENNHK [ALCAM559-580]
induction of p65-NFκB expression by Ang II via transactivation of full length chicken EpCAM [1]: prevents induction | induction of p65 expression by Ang II when the construct alone is expressed (AT1R-CHO cells): failed to increase the expression of p65
